Data published in the supplement of paper PMC9876800.

System: peptide library, one residue held at a place counted from the S/T acceptor
Experiment: relative phosphorylation of the sub-library (ratio to the mean residue at this position); human; higher = residue favoured
Method in brief: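 In 384-well plates, purified recombinant kinases (human or orthologue constructs) were incubated for 90 min under kinase-specific conditions with 50 μM biotinylated degenerate peptide sub-libraries and 50 μM ATP spiked with γ-32P-ATP. Each sub-library fixed a single residue at one position around a central Ser/Thr. Relative sub-library phosphorylation, measured by phosphorimaging and densitometry of streptavidin membrane spots, is given as a ratio to the mean residue at that position.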

Chain of ACVR1B, construct: aa150-end (P36896 150-505, looked up): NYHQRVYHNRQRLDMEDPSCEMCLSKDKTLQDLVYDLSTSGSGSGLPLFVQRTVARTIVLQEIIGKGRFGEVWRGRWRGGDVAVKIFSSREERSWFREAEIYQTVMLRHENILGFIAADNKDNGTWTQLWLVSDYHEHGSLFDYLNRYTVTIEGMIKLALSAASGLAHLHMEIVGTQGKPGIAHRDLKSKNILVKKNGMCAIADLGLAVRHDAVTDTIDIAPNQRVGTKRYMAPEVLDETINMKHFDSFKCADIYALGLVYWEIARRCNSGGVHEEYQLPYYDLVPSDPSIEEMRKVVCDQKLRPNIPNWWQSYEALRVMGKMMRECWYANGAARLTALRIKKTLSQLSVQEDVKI
Chain of AURKB, construct: Full length (Q96GD4 whole entry, looked up): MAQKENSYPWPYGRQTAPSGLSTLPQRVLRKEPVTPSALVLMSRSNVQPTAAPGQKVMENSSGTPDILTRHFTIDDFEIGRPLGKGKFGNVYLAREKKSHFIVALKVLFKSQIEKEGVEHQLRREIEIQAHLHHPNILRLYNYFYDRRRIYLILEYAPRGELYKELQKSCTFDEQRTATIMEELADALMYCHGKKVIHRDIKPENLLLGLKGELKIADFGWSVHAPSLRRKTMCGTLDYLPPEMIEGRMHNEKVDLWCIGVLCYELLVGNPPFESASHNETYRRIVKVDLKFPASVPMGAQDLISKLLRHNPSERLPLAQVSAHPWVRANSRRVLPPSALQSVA
Chain of AURKA, construct: Full length (O14965 whole entry, looked up): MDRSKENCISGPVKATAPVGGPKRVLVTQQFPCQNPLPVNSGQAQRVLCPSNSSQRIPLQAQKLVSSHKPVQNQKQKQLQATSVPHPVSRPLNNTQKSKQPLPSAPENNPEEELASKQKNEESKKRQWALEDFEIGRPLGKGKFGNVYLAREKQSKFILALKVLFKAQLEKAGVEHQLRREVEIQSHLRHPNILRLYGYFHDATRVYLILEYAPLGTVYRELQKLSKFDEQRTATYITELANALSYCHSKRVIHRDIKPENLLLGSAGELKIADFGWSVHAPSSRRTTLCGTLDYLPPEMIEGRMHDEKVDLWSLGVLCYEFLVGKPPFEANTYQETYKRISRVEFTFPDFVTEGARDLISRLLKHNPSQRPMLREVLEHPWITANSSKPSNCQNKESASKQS

ACVR1B, construct: aa150-end (from UniProt P36896)
relative phosphorylation
Conditions	at +1	at +2	at +3	at +4	at -1	at -2	at -3	at -4	at -5
A fixed	0.754	1.35	0.905	1.06	0.833	0.721	0.953	0.891	1.03
D fixed	1.17	1.11	1.11	1.24	1.05	1.58	1.35	1.55	1.12
E fixed	1.75	0.847	1.54	1.19	1.32	6.31	1.52	1.26	0.838
F fixed	1.09	1.01	1.19	0.997	0.896	0.497	1.03	1.02	1.13
G fixed	0.796	0.995	1.22	0.798	0.65	0.801	1.12	1.03	0.975
H fixed	0.749	0.809	0.948	0.968	1.16	0.606	1.02	0.997	1.24
I fixed	1.21	1.13	1.06	0.855	1	0.622	0.855	0.874	0.837
K fixed	0.542	0.649	0.605	0.896	0.747	0.483	0.798	0.987	1.11
L fixed	1.05	1.22	1.01	0.818	1.33	0.597	0.85	0.936	0.931
M fixed	1.33	0.865	1.04	0.967	1.45	0.497	0.998	1.06	0.968
N fixed	0.774	0.902	0.741	0.975	0.963	0.716	0.96	0.954	1.01
P fixed	0.691	1.17	1.14	1.42	0.762	0.549	0.947	0.94	0.939
Q fixed	0.944	0.952	0.909	1.01	1.03	0.72	0.956	0.768	0.809
R fixed	0.604	0.764	0.662	0.799	0.88	0.624	0.884	0.889	1.11
V fixed	1.19	1.18	1.09	0.929	1.12	0.603	0.867	0.843	0.816
W fixed	1.14	0.919	0.903	1.07	0.822	0.592	0.892	1.01	1.19
Y fixed	1.23	1.13	0.95	1.01	0.991	0.49	0.995	0.998	0.953
pThr fixed	2.93	1.06	0.942	1.36	0.888	1.36	1.34	0.896	1.1
pTyr fixed	3.57	1.77	1.28	1.51	1.27	0.679	1.02	1.26	1.03

AURKA, construct: Full length (from UniProt O14965)
relative phosphorylation
Conditions	at +1	at +2	at +3	at +4	at -1	at -2	at -3	at -4	at -5
A fixed	0.474	1	0.906	0.863	0.683	0.209	0.665	1.08	1.08
D fixed	1.14	0.993	0.822	0.906	1.39	0.274	0.606	1.4	1
E fixed	0.796	1.03	0.851	1.1	1.56	0.257	0.85	0.963	1.06
F fixed	1.83	0.958	1.25	0.755	0.884	0.203	0.574	0.725	0.83
G fixed	0.647	1.76	1.48	1.05	0.689	0.32	1.38	1.23	1.18
H fixed	0.665	1.3	1.32	1.18	1.09	0.341	0.964	0.952	1.08
I fixed	1.66	1.03	0.865	0.931	0.637	0.162	0.46	0.706	0.874
K fixed	0.241	0.324	0.844	1.19	0.707	1.32	1.58	1.35	1.38
L fixed	2.05	0.784	0.812	0.649	1.32	0.182	0.367	0.766	0.753
M fixed	1.76	0.832	0.752	1	1.38	0.176	0.541	0.818	0.722
N fixed	0.852	0.649	0.798	1.26	1.15	0.345	0.857	1.04	1.2
P fixed	0.211	0.78	1.3	0.969	0.748	0.289	0.883	0.905	0.738
Q fixed	0.735	0.629	0.843	1.06	1.09	0.608	0.667	0.908	0.802
R fixed	0.425	0.509	0.821	1.24	1.16	11.7	4.83	1.71	1.67
V fixed	1.11	0.766	0.775	0.682	0.601	0.163	0.425	0.699	0.759
W fixed	1.26	0.881	1.2	1.22	0.587	0.232	0.779	0.966	0.906
Y fixed	1.14	2.77	1.36	0.948	1.33	0.185	0.574	0.782	0.964
pThr fixed	1.61	1.26	1.07	1.53	0.588	0.374	0.879	0.972	1.04
pTyr fixed	0.836	1.53	1.74	1.43	2.24	0.356	1	0.962	1.3

AURKB, construct: Full length (from UniProt Q96GD4)
relative phosphorylation
Conditions	at +1	at +2	at +3	at +4	at -1	at -2	at -3	at -4	at -5
A fixed	0.803	0.959	0.784	0.784	0.651	0.28	0.727	1.01	1.08
D fixed	0.673	0.507	0.523	0.986	0.489	0.176	0.485	0.629	0.734
E fixed	0.611	0.427	0.498	0.727	0.433	0.183	0.422	0.653	0.511
F fixed	1.34	1.05	1.35	0.856	0.678	0.247	0.633	0.724	0.867
G fixed	1.11	1.59	1.3	1.06	0.553	0.381	0.954	1.17	1.24
H fixed	0.933	1.6	1.51	1.09	0.971	0.542	1.02	1.03	1.06
I fixed	1.21	0.911	0.957	0.869	0.735	0.217	0.553	0.709	0.855
K fixed	0.78	0.77	0.955	1.13	2.06	2.28	2.2	1.8	1.81
L fixed	1.49	0.948	1.14	0.989	1.23	0.25	0.554	0.738	0.779
M fixed	1.59	0.864	0.901	1.06	0.97	0.243	0.661	0.829	0.786
N fixed	1.33	1.04	0.981	1.08	0.788	0.377	0.784	0.844	0.966
P fixed	0.212	1.07	1.1	1.32	0.917	0.327	0.9	0.953	0.985
Q fixed	1.18	1.13	0.923	1.32	1.08	0.528	0.775	0.849	0.911
R fixed	1.05	0.972	0.968	1.01	2.98	10.2	4.37	2.72	1.9
V fixed	0.82	0.897	0.844	0.823	0.827	0.207	0.564	0.687	0.762
W fixed	0.932	1.05	1.23	1.17	0.605	0.287	0.735	0.855	0.931
Y fixed	0.922	1.22	1.05	0.734	1.04	0.276	0.665	0.798	0.831
pThr fixed	0.88	0.581	0.555	1.08	0.413	0.314	0.591	0.691	0.716
pTyr fixed	0.59	0.435	0.847	0.784	0.461	0.272	0.62	0.556	0.66
